# According to publication PMC6151752, “Characterization, Function, and Transcriptional Profiling Analysis of 3-Hydroxy-3-methylglutaryl-CoA Synthase Gene (GbHMGS1) towards Stresses and Exogenous Hormone Treatments in Ginkgo biloba” (Molecules : A Journal of Synthetic Chemistry and Natural …, 2017):
# Substrate: CC(=O)CC(=O)SCCNC(=O)CCNC(=O)[C@H](O)C(C)(C)COP(=O)(O)OP(=O)(O)OC[C@H]1O[C@@H](n2cnc3c(N)ncnc32)[C@H](O)[C@@H]1OP(=O)(O)O
# Assay: initial rate versus acetoacetyl-CoA concentration, Michaelis-Menten fit
# Format: biochemical, Ginkgo biloba
# Settings: acetoacetyl-CoA varied 20-100 μM (Km lies far above the range); pH, temperature and acetyl-CoA concentration not given
# From the text: initial rate versus acetoacetyl-CoA concentration, Michaelis-Menten fit on GbHMGS1
protein,measurement,value
GbHMGS1 (Ginkgo biloba) (protein) MASHPENVGILAMDIYFPSTCVQQDALETFDGVSKGKYTIGLGQDCMAFCMDLEDVISMSLTVVSSLLDKYGIDPKRIGRLEVGSETVIDKSKSIKTWLMQIFEECGNSEIEGVDSTNACYGGTAALLNCVNWVESRSWDGRYGLVVSTDSAVYAEGPARPTGGAAAVAMLIGPNAPIVFESKYRGTHMSHAYDFYKPNLASEYPVVDGKLSQTCYLMGLDSCYKRFCNRFEEGEGRQFSLSDADYVAFHSPYNKLVQKSFARLLFNDFSRHASSVGKDAQEKLEPYAGLSDEDSYSSRELEKVSQQVARPLYDVKVQPSTLLPKQVGNMYTASLYAAFASIIHNEHDTLEGQRVLMFSYGSGLASTMFSLKIREGQHPFTLTNIADVMDVSSKLDSRHVLSPEDFMVNMKLMETLYGAKDFISCSDHNLLRSGTFYLTQVDSMYRRFYAQKVASPDDTHEKVKLANGIIHDQL,Km,689 ± 32.6 µM
same,Vmax,0.0371 µM/min
same,kcat,3.26 ± 0.218 s⁻¹
same,kcat/Km,4670 ± 167 M⁻¹ s⁻¹
